Measurements taken from article PMC10054925 (bioRxiv, 2023).

Biological target: the molecule itself
Assay: SEC

B1: Vibrio cholerae HlyU (VcHlyU), transcriptional activator of hlyA (natural protein)
chain: MPYLKGAPMNLQEMEKNSAKAVVLLKAMANERRLQILCMLLDNELSVGELSSRLELSQSALSQHLAWLRRDGLVNTRKEAQTVFYTLSSTEVKAMIELLHRLYCQANQ
stoichiometry N: 2
